Results from patent US20180057604A1 (Genentech, published 2018).
Like-named read-outs stand apart in the source and are kept apart here.

Tests used:
[1] = target: human BACE1 ECD; assay: cell-based or functional assay
[2] = target: murine BACE1 ECD; assay: cell-based or functional assay
[3] = target: T1, human BACE1 ECD; assay: Octet, pH 7.5;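 also: antibodies captured on anti-human capture biosensor tips, dissociation followed in PBS with BSA buffer, kinetics fitted with a one-to-one binding model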
T1 construct: analyte of the Octet assay (200 nM) and enzyme of the first short substrate assay; also called human BACE1 extracellular domain

[4] = target: T2, murine BACE1 ECD; assay: Octet, pH 7.5;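 also: antibodies captured on anti-human capture biosensor tips, dissociation followed in PBS with BSA buffer, kinetics fitted with a one-to-one binding model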
T2 construct: analyte of the Octet assay (200 nM) and enzyme of the first short substrate assay

[5] = target: T3, human BACE1 (R&D Systems) (human, UniProt P56817); assay: SPR (Biacore)
T3 construct: recombinant, commercial (R&D Systems)

[6] = target: BACE1 (HTRF long substrate and FRET short substrate assays of Example 9D); assay: cell-based or functional assay
[7] = target: T4, BACE1 in primary mouse cortical neurons (mouse, UniProt P56818 46-501); assay: cell-based or functional assay
[8] = target: T1, human BACE1 ECD; assay: Octet, pH 5.0
[9] = target: T2, murine BACE1 ECD; assay: Octet, pH 5.0
[10] = target: T1, human BACE1 ECD; assay: Octet, pH 7.5; remark: listed apart in the source;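 also: antibodies captured on anti-human capture biosensor tips, dissociation followed in PBS with BSA buffer, kinetics fitted with a one-to-one binding model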
[11] = target: T2, murine BACE1 ECD; assay: Octet, pH 7.5; remark: listed apart in the source;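 also: antibodies captured on anti-human capture biosensor tips, dissociation followed in PBS with BSA buffer, kinetics fitted with a one-to-one binding model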
[12] = target: T4, BACE1 in primary mouse cortical neurons; assay: cell-based or functional assay; remark: listed apart in the source
[13] = target: T5, human TfR extracellular domain with N-terminal His tag (human, UniProt P02786 89-760); assay: ELISA, IgG;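 also: ELISA of IgG-containing supernatants tested in 1:5 serial dilutions for 1 h, bound antibody read out with HRP anti-kappa antibody and TMB substrate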
T5 construct: Biotinylated in some assays; also called huTfR; HuTfR

[14] = target: T6, cyno TfR extracellular domain (analogous construct to human TfR ecd) (cynomolgus monkey, UniProt Q5RDH6 87-760 (Pongo abelii entry)); assay: ELISA, IgG;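 also: ELISA of IgG-containing supernatants tested in 1:5 serial dilutions for 1 h, bound antibody read out with HRP anti-kappa antibody and TMB substrate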
T6 construct: also called cynoTfR ecd
T6 chain: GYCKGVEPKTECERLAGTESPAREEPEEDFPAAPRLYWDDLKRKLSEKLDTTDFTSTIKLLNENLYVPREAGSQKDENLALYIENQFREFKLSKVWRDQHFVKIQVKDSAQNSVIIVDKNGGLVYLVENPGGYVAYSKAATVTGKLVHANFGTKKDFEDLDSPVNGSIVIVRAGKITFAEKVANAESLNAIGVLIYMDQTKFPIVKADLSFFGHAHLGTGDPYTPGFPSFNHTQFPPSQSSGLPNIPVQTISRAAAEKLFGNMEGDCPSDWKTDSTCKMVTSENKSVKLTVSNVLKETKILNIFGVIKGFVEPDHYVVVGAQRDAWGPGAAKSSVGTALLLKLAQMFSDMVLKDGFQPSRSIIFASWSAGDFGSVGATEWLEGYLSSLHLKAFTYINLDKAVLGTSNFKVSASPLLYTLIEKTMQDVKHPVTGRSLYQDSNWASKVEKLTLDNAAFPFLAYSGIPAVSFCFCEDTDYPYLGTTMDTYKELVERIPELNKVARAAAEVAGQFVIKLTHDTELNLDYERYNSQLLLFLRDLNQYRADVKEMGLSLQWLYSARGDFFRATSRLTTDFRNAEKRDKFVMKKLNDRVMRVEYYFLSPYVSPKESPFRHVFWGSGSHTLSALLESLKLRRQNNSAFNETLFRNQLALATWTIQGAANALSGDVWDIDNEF

T3 sequence (P56817 22-457 limits assumed): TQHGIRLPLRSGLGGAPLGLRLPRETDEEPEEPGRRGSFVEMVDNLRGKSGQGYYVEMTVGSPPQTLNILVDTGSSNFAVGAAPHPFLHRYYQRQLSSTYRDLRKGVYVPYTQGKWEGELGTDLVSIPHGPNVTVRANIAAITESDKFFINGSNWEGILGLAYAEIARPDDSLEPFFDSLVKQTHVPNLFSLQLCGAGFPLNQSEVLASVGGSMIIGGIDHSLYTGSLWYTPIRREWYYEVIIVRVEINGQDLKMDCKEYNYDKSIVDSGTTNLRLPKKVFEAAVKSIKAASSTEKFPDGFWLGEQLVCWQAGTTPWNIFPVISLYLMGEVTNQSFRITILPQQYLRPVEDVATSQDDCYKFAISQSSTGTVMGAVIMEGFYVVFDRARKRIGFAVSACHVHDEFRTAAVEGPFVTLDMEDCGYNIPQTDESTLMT
T2 sequence (single chain, as listed by the source limits assumed): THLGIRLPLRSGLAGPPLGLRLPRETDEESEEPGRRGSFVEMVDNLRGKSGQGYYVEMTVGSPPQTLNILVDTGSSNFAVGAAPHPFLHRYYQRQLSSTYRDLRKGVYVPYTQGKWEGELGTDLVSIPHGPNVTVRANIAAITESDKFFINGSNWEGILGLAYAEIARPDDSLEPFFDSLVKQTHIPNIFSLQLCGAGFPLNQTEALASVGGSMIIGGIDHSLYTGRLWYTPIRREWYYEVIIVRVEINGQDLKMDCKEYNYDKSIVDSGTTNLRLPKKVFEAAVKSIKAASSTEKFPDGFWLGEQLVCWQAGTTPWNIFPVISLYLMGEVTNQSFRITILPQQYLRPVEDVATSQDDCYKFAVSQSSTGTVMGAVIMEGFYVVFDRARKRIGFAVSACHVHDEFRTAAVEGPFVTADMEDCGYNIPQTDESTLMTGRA
T5 sequence (P02786 89-760 G142S): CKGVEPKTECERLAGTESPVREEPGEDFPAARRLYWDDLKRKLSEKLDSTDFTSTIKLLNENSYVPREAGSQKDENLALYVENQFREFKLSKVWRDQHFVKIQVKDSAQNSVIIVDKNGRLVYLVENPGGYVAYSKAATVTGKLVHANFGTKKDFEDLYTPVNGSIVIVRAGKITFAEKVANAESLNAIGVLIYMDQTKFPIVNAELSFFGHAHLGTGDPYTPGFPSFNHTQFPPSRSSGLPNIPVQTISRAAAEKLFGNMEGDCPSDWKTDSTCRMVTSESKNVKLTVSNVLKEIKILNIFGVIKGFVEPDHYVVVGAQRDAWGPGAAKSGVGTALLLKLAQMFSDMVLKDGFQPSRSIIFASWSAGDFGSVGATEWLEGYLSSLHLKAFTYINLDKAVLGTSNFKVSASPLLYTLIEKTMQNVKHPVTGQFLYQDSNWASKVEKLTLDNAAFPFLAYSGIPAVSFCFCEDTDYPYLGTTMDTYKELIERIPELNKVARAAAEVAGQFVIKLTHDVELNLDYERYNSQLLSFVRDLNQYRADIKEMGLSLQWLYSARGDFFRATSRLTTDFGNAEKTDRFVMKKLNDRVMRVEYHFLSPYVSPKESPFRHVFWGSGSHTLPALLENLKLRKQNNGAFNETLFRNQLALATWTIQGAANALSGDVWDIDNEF
T4 sequence (P56818 46-501): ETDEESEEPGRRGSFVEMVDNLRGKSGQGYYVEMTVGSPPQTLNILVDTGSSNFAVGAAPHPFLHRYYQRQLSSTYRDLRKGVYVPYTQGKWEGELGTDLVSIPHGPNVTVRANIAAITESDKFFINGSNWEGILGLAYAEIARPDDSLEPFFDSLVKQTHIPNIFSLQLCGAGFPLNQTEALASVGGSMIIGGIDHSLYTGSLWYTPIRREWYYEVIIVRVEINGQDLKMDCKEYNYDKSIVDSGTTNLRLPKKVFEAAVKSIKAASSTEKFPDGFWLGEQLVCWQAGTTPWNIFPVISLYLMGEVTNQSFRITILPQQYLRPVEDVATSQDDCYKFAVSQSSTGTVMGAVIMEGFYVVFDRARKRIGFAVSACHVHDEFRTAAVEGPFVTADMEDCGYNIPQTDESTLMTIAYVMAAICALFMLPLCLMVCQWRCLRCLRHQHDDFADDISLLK
T1 sequence (single chain, as listed by the source limits assumed): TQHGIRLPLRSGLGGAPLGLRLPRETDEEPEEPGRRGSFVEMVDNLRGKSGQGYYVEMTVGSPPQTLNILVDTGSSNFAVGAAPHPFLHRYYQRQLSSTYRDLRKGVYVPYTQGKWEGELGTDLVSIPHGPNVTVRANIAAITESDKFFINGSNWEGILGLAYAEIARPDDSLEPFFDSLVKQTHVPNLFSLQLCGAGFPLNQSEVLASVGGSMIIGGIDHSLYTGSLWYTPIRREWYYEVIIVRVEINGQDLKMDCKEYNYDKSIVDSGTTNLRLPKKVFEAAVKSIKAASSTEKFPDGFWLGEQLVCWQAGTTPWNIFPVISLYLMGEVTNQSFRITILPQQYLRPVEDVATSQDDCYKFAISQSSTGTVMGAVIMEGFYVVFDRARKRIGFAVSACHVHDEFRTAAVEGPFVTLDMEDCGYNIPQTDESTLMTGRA

B1: 5532 (antibody, V domains shown)
VH: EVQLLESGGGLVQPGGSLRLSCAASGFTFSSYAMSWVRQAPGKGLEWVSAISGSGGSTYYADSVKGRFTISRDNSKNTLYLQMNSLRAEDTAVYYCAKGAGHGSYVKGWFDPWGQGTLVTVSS
VL: EIVLTQSPATLSLSPGERATLSCRASQSVSSYLAWYQQKPGQAPRLLIYDASNRATGIPARFSGSGSGTDFTLTISSLEPEDFAVYYCQQSSNFPFTFGGGTKVEIK
notes: anti-BACE1 IgG
% inhibition of BACE1 activity, short FRET substrate [1]: 56%
% inhibition of BACE1 activity, short FRET substrate [2]: 50%
Kd [3]: 76 nM
Kd [4]: 48 nM
Kd [5]: 130 nM
EC50, FRET short substrate [6]: 52.3 nM
EC50, HTRF long substrate [6]: 104 nM

B2: 5583 (antibody, V domains shown)
VH: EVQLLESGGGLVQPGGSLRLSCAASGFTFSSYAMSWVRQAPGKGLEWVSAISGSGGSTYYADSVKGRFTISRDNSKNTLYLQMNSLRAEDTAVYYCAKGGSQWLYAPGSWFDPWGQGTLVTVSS
VL: EIVLTQSPATLSLSPGERATLSCRASQSVSSYLAWYQQKPGQAPRLLIYDASNRATGIPARFSGSGSGTDFTLTISSLEPEDFAVYYCVQRSNFPWTFGGGTKVEIK
notes: anti-BACE1 IgG
% inhibition of BACE1 activity, short FRET substrate [1]: 44%
% inhibition of BACE1 activity, short FRET substrate [2]: 34%
Kd [3]: 78 nM
Kd [4]: 51 nM
Kd [5]: 81.8 nM
EC50, FRET short substrate [6]: 9.72 nM
EC50, HTRF long substrate [6]: 172 nM

B3: 5592 (antibody, V domains shown)
VH: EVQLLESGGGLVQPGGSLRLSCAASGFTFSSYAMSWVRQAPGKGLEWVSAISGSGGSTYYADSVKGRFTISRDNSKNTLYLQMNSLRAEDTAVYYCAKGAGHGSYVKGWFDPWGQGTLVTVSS
VL: EIVLTQSPATLSLSPGERATLSCRASQSVSSYLAWYQQKPGQAPRLLIYDASNRATGIPARFSGSGSGTDFTLTISSLEPEDFAVYYCQQSVNFPFTFGGGTKVEIK
notes: anti-BACE1 IgG
% inhibition of BACE1 activity, short FRET substrate [1]: 63%
% inhibition of BACE1 activity, short FRET substrate [2]: 60%
Kd [3]: 59 nM
Kd [4]: 38 nM
Kd [5]: 105 nM
EC50, FRET short substrate [6]: 95.9 nM
EC50, HTRF long substrate [6]: 189 nM

B4: 5539 (antibody, V domains shown)
VH: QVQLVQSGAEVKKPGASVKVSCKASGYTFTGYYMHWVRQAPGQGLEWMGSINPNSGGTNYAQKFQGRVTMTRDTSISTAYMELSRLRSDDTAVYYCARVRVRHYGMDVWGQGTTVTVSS
VL: DIQMTQSPSSLSASVGDRVTITCRASQSISSYLNWYQQKPGKAPKLLIYAASSLQSGVPSRFSGSGSGTDFTLTISSLQPEDFATYYCQQPLSHPRTFGGGTKVEIK
notes: anti-BACE1 IgG
% inhibition of BACE1 activity, short FRET substrate [1]: 42%
% inhibition of BACE1 activity, short FRET substrate [2]: 23%
Kd [3]: 79 nM
Kd [4]: 110 nM
IC50, Abeta x-40 in mouse cortical neurons [7]: 17.6 nM
maximal % inhibition of Abeta x-40 [7]: 45%
Kd [5]: 30.5 nM
EC50, HTRF long substrate [6]: 0.694 nM

B5: 5931 (antibody, V domains shown)
VH: QLQLQESGPGLVKPSETLSLTCTVSGGSISWSSYYWSWIRQPPGKGLEWIGSIYRSGRTYYNPSLKGRVTISVDTSKNQFSLKLSSVTAADTAVYYCARVGHGINYFDLWGRGTLVTVSS
VL: EIVLTQSPATLSLSPGERATLSCRASQSVSSYLAWYQQKPGQAPRLLIYDASKRATGIPARFSGSGSGTDFTLTISSLEPEDFAVYYCQQVYTWPPRTFGGGTKVEIK
notes: anti-BACE1 IgG
Kd [8]: < 0.22 nM
Kd [9]: < 0.28 nM
Kd [10]: < 0.22 nM
Kd [11]: < 0.23 nM
IC50, Abeta x-40 in mouse cortical neurons [12]: 0.91 nM
maximal % inhibition of Abeta x-40 [12]: 69%

B6: 5932 (antibody, V domains shown)
VH: QLQLQESGPGLVKPSETLSLTCTVSGGSISRGSYYWGWIRQPPGKGLEWIGMIYYSGSTWYNPSLKSRVTISVDTSKNQFSLKLSSVTAADTAVYYCARVGHGISYFDLWGRGTLVTVSS
VL: EIVLTQSPATLSLSPGERATLSCRASQSVSSYLAWYQQKPGQAPRLLIYDASKRATGIPARFSGSGSGTDFTLTISSLEPEDFAVYYCQQVYTWPPRTFGGGTKVEIK
notes: anti-BACE1 IgG
Kd [8]: < 0.23 nM
Kd [9]: < 0.3 nM
Kd [10]: 0.31 nM
Kd [11]: < 0.3 nM
IC50, Abeta x-40 in mouse cortical neurons [12]: 6.26 nM
maximal % inhibition of Abeta x-40 [12]: 57%

B7: N92A (antibody, V domains shown)
VH: EVQLVQSGAEVKKPGASVKVSCKGSGYTFTDYAMHWVRQAPGQGLEWMGGISTYFGRTNYNQKFKGRVTMTVDTSISTAYMELSRLRSDDTAVYYCARGLSGNYVMDYWGQGTTVTVSS
VL: DIVMTQSPDSLAVSLGERATINCRASESVDSYGNSFMHWYQQKPGQPPKLLIYRASNLESGVPDRFSGSGSRTDFTLTISSLQAEDVAVYYCQQSAEAPPTFGQGTKLEIK
notes: also called 7A4.v15 N92A (CDR-L3) IgG
EC50 [13]: 0.0087 µg/mL
EC50 [14]: 0.0137 µg/mL

B8: P96A (antibody, V domains shown)
VH: EVQLVQSGAEVKKPGASVKVSCKGSGYTFTDYAMHWVRQAPGQGLEWMGGISTYFGRTNYNQKFKGRVTMTVDTSISTAYMELSRLRSDDTAVYYCARGLSGNYVMDYWGQGTTVTVSS
VL: DIVMTQSPDSLAVSLGERATINCRASESVDSYGNSFMHWYQQKPGQPPKLLIYRASNLESGVPDRFSGSGSRTDFTLTISSLQAEDVAVYYCQQSNEAPATFGQGTKLEIK
notes: also called 7A4.v15 P96A (CDR-L3) IgG
EC50 [13]: 0.01 µg/mL
EC50 [14]: 0.0162 µg/mL

B9: S91A (antibody, V domains shown)
VH: EVQLVQSGAEVKKPGASVKVSCKGSGYTFTDYAMHWVRQAPGQGLEWMGGISTYFGRTNYNQKFKGRVTMTVDTSISTAYMELSRLRSDDTAVYYCARGLSGNYVMDYWGQGTTVTVSS
VL: DIVMTQSPDSLAVSLGERATINCRASESVDSYGNSFMHWYQQKPGQPPKLLIYRASNLESGVPDRFSGSGSRTDFTLTISSLQAEDVAVYYCQQANEAPPTFGQGTKLEIK
notes: also called 7A4.v15 S91A (CDR-L3) IgG
EC50 [13]: 0.0113 µg/mL
EC50 [14]: 0.0163 µg/mL

B10: Y102A (antibody, V domains shown)
VH: EVQLVQSGAEVKKPGASVKVSCKGSGYTFTDYAMHWVRQAPGQGLEWMGGISTYFGRTNYNQKFKGRVTMTVDTSISTAYMELSRLRSDDTAVYYCARGLSGNYVMDAWGQGTTVTVSS
VL: DIVMTQSPDSLAVSLGERATINCRASESVDSYGNSFMHWYQQKPGQPPKLLIYRASNLESGVPDRFSGSGSRTDFTLTISSLQAEDVAVYYCQQSNEAPPTFGQGTKLEIK
notes: also called 7A4.v15 Y102A (CDR-H3) IgG; copies: 2 + 2
EC50 [13]: 0.0126 µg/mL
EC50 [14]: 0.0178 µg/mL

B11: P95A (antibody, V domains shown)
VH: EVQLVQSGAEVKKPGASVKVSCKGSGYTFTDYAMHWVRQAPGQGLEWMGGISTYFGRTNYNQKFKGRVTMTVDTSISTAYMELSRLRSDDTAVYYCARGLSGNYVMDYWGQGTTVTVSS
VL: DIVMTQSPDSLAVSLGERATINCRASESVDSYGNSFMHWYQQKPGQPPKLLIYRASNLESGVPDRFSGSGSRTDFTLTISSLQAEDVAVYYCQQSNEAAPTFGQGTKLEIK
notes: also called 7A4.v15 P95A (CDR-L3) IgG
EC50 [13]: 0.0097 µg/mL
EC50 [14]: 0.0159 µg/mL

B12: T97A (antibody, V domains shown)
VH: EVQLVQSGAEVKKPGASVKVSCKGSGYTFTDYAMHWVRQAPGQGLEWMGGISTYFGRTNYNQKFKGRVTMTVDTSISTAYMELSRLRSDDTAVYYCARGLSGNYVMDYWGQGTTVTVSS
VL: DIVMTQSPDSLAVSLGERATINCRASESVDSYGNSFMHWYQQKPGQPPKLLIYRASNLESGVPDRFSGSGSRTDFTLTISSLQAEDVAVYYCQQSNEAPPAFGQGTKLEIK
notes: also called 7A4.v15 T97A (CDR-L3) IgG
EC50 [13]: 0.012 µg/mL
EC50 [14]: 0.0226 µg/mL

B13: Y100A (antibody, V domains shown)
VH: EVQLVQSGAEVKKPGASVKVSCKGSGYTFTDYAMHWVRQAPGQGLEWMGGISTYFGRTNYNQKFKGRVTMTVDTSISTAYMELSRLRSDDTAVYYCARGLSGNAVMDYWGQGTTVTVSS
VL: DIVMTQSPDSLAVSLGERATINCRASESVDSYGNSFMHWYQQKPGQPPKLLIYRASNLESGVPDRFSGSGSRTDFTLTISSLQAEDVAVYYCQQSNEAPPTFGQGTKLEIK
notes: also called 7A4.v15 Y100A (CDR-H3) IgG; copies: 2 + 2
EC50 [13]: 0.0159 µg/mL
EC50 [14]: 0.024 µg/mL

B14: Q89A (antibody, V domains shown)
VH: EVQLVQSGAEVKKPGASVKVSCKGSGYTFTDYAMHWVRQAPGQGLEWMGGISTYFGRTNYNQKFKGRVTMTVDTSISTAYMELSRLRSDDTAVYYCARGLSGNYVMDYWGQGTTVTVSS
VL: DIVMTQSPDSLAVSLGERATINCRASESVDSYGNSFMHWYQQKPGQPPKLLIYRASNLESGVPDRFSGSGSRTDFTLTISSLQAEDVAVYYCAQSNEAPPTFGQGTKLEIK
notes: also called 7A4.v15 Q89A (CDR-L3) IgG
EC50 [13]: 0.0109 µg/mL
EC50 [14]: 0.0138 µg/mL
